This note sets out measurements from the DeepSol protein solubility set.

The data set in a line: soluble on expression in E. coli; label from the status in PepcDB or PDB records.
In the case of “MDDTLFQLKFTAKQLEKLAKKAEKDSKAEQAKVKKALQQKNVECARVYAENAIRKKNEGVNWLRMASRVDAVASKVQTAVTMKGVTKNMAQVTKALDKALSAMDLQKVSAVMDRFEQQVQNLDVHTSVMEDSVSSATTLTTPQEQVDSLIVQIAEENGLEVLDQLSQLPEGASAVGESSVRSQEDQLSRRLAALRN”, the “soluble on expression in E. coli” value is listed as “not soluble”.
The entry for “MDEGVKEKFIGAVLGAAVGDALGKSVEDITEEEVFEFYGDRIRDFVTPHPSSPAYGQLPEETSDETTIFRLLLESLVEKKALDVRDFLNRLMEWYDREEMHRYPDPMLLTAIDLLSRGINPSTHGLTSFSVEGILRSVALGLYHYYNPELAAEGSKVVSLLTHRSDVISDASAILGALIAHLVRGDFYLEDFREKLRLIETLKDYAKEEKHKKILDRVAELLMESADLETAINTLGNGTFAFEAFPLALYIFLSNVENPEEALFQAVNSYGEFGGDTDAIGFLVGAMLGAYYGEEAIPYHLRENVENSQKLRELAERLYEVVEKQVGFSQ” is “not soluble”.
The entry for “MDELLKAIKTKIAEMKKIELTGFTNTETATAYFQEKEAILEGIVKTLETITVQETSEVEALKSTVKSLREEIKGQAKSPRELSRRELLYNLGKGIAAAWSGNHKVLADLAFSPNLKSDNWTNPKDVSWGERGWTVSKAALGEPMGNMSPNNEQFLINPIYETEIMSDVAKKSVMMSLVRHRPMLGPSIFLPTRDRGGVQLNWLTAYGQKIEGSKPKGAERVELKAYTLAGFIPWFDEFEEDVFVDLGAMFIDEFIETYGQEFDRQCLLADDDPFTGAMACADVTEVTIKGDTIDDLTWKDFRDAVYKVPAEERKDCSWFLNETVLNHIANIEDTTGRPIWRRPTEAMPGRLDLYPYHEVSILPQIADIGENQAFAVFMNPKRIQHGNRRGIELKKFDGTTESLEYGELFLRFRKRDGFLVPDRKTTWSSLGHN” is “not soluble”; for “MDELNPSPPVSEDPEHWYCTNMVGVPVGLIGSTAFNRCLRRITIHGTRETHPGLFRLLAACEYPATASEVFEHYMELEFGLAPGAHEPTQARYPTSYLDLLRGWGVESDCPKAAVLKGWVESRFGLVPTFHKQRLGLFPSSAWATYLQEKTDVRFHNNCIFQQFDLLYEYCQWSIRRFKTPGPRFVRLWRGTNDVEQQLVEGDARQRLCTVRLNNLVSFSDSKERAEEFGDWVLETEVPTVKLLFFPGLLQRQVLGYEGEFLVIGGNYKVRAYHGWFAAALEHHHHHH” it is “not soluble”; for “MDERDVLWVGVCAMPKKVESEPMQRILAALTSSRVAHFEPMIFDAKTLFERPIHKWPVCDALIAFHSEGFPLERAIAYAELRRPYCLNGLREQRMLLDRSKVYEVLARERVPVPRHIVVRHDGADVGRTDTRFVEHDDYIEYCGERLFKPFVEKPIDAEDHRVCIYYARPLYGRRRLFRKTANQSSVFEPGWRRVRREGAFIYEEFIPSEHQSDIKVYAVGPEYAYAERRKSPVVDGIVERNAHGKELRFPVELSTAERCVAATITAAFRQFVCGFDLIRHADGNAFYVNDVNGFSFVKGSQSYYESCGRILAEHLARECARSAAVDGE” it is “not soluble”.
Then “MDERFISFVCLLFTMEFQKYRTMHFPRDVYIGHDVLNRVLDVVDQNSRTRDVIIVTGNTTYELAGKKIVEILASSPYEVHLSFAGEANYENLKKIEEETNDVNAGIIIGVGGGTKIDLAKKLAYDKNLPFISIPTSPSHDGIASPRASLRRNGISYSEEGAMPIGVIADTSVMIKAPYRYLAAGAADVISNISAVKDWKLAHRLRGEEFSSSAAAMSEYSAQEVISQVGEIRKYDESSVWLVTKNILASGTAMAIAGNSRPGSGSEHLFAHALEAAGVNNMLHGEMCAMGTIVSLYLHDDNWQKIRDVFESLGVSVKARDYGLKEEVVIEALRRAHAIRPERYTILGESDMSYDAAVKALELTGII”, with “not soluble”.
Consider “MDERWMVMKITIVFENHAGYRKGLIGYHGFSALVEANGYRVLVDTGTDGKVLLNNMSELGISPDDIDALFITHGHYDHTGGLRELLSARTEALDIYAHPGIFKRRLALKPKKREIGIPFTREELEELGGKFILSDKSKEILPGFISSGEIERITWDRAVGYFPDGSKDPVRDDMALIVEEGSKSVVITGCGHSGIINIAIHSKKLTNNRIAALIGGFHLKGIERSLLDEAVKKLRELEIEKLYPGHCTGIEEFAYLWSKFGNVEGIHVGKEIKILEHHHHHH”, for which the “soluble on expression in E. coli” value was “soluble”.
The entry for “MDFDMIEEKKDSVIVRNVENFELKDIFDCGQCFRWHRQENGNYIGIAFEKVVEVQKIGEDVVIYNINEEEFKNVWSEYFDLYRDYGEIKKELSRDPLLKKSVDFGEGIRILRQDPFEILLSFIISANNRIPMIKKCINNISEKAGKKLEYKGKIYYAFPTVDKLHEFTEKDFEECTAGFRAKYLKDTVDRIYNGELNLEYIKSLNDNECHEELKKFMGVGPQVADCIMLFSMQKYSAFPVDTWVKKAMMSLYVAPDVSLKKIRDFGREKFGSLSGFAQQYLFYYARENNIQL” is “soluble”; for “MDFLSREGSPISAELWEKIDEAVVSAAKKILTGRRFISIYGPLGAGIQAINVDNISELDETEENISVIRGRTYRHIPLINEDFSLLWRDLEFSEQMGLPVDLSSASRAATQCALREDKLIFYGNDELGYKGLLTEDGIVKFPISNWSEGENPFKDISIGLAKFIENGIVGRKALVVSPNLFVQLQRIQPGTGTTEYDRINKLLDGNIFSTPVLKDDKAVLVCSEPQNIDLVIGQDMITSYLETKNLNHYFRIMETILLRIKNKKAVIVFD” it is “not soluble”.
As to “MDFRANLQRQVKPKTVSEEERKVHSPQQVDFRSVLAKKGTSKTPVPEKVPPPKPATPDFRSVLGGKKKLPAENGSSSAETLNAKAVESSKPLSNAQPSGPLKPVGNAKPAETLKPMGNAKPAETLKPMGNAKPDENLKSASKELKKDVKNDVNCKRGHAGTTDNEKRSESQGTAPAFKQKLQDVHVAEGKKLLLQCQVSSDPPATIIWTLNGKTLKTTKFIILSQEGSLCSVSIEKALPEDRGLYKCVAKNDAGQAECSCQVTVDDAPASENTKAPEMKSRRPKSSLPPVLGTESDATVKKKPAPKTPPKAAMPPQIIQFPEDQKVRAGESVELFGKVTGTQPITCTWMKFRKQIQESEHMKVENSENGSKLTILAARQEHCGCYTLLVENKLGSRQAQVNLTVVDKPDPPAGTPCASDIRSSSLTLSWYGSSYDGGSAVQSYSIEIWDSANKTWKELATCRSTSFNVQDLLPDHEYKFRVRAINVYGTSEPSQESELTTVGEKPEEPKDEVEVSDDDEKEPEVDYRTVTINTEQKVSDFYDIEERLGSGKFGQVFRLVEKKTRKVWAGKFFKAYSAKEKENIRQEISIMNCLHHPKLVQCVDAFEEKANIVMVLEIVSGGELFERIIDEDFELTERECIKYMRQISEGVEYIHKQGIVHLDLKPENIMCVNKTGTRIKLIDFGLARRLENAGSLKVLFGTPEFVAPEVINYEPIGYATDMWSIGVICYILVSGLSPFMGDNDNETLANVTSATWDFDDEAFDEISDDAKDFISNLLKKDMKNRLDCTQCLQHPWLMKDTKNMEAKKLSKDRMKKYMARRKWQKTGNAVRAIGRLSSMAMISGLSGRKSSTGSPTSPLNAEKLESEEDVSQAFLEAVAEEKPHVKPYFSKTIRDLEVVEGSAARFDCKIEGYPDPEVVWFKDDQSIRESRHFQIDYDEDGNCSLIISDVCGDDDAKYTCKAVNSLGEATCTAELIVETMEEGEGEGEEEEE”, the “soluble on expression in E. coli” value is given as “soluble”.
As for “MDFYYLPGSAPCRAVQMTAAAVGVELNLKLTDLMKGEHMKPEFLKLNPQHCIPTLVDNGFALWESRAIQIYLAEKYGKDDKLYPKDPQKRAVVNQRLYFDMGTLYQRFADYHYPQIFAKQPANPENEKKMKDAVGFLNTFLEGQEYAAGNDLTIADLSLAATIATYEVAGFDFAPYPNVAAWFARCKANAPGYALNQAGADEFKAKFLS”, the “soluble on expression in E. coli” value is recorded as “soluble”.
Then “MDGHYEVSKSILINRSSPDVFAYVSHIKNQEHYSVWAKRDTNSIKTYRGRDGVVGFTATWKSEMKKVGQGEQEIKKIIPNKRIDLELRFFKPFEATDHVFMETIAQDEEETKVVWGFDGEMAYPVNFFLLFVDMEDVLGGDLETGLVNLKTILESKLEHHHHHH”, with “soluble”.
The entry for “MDGTMEDSEAVQRATALIEQRLAQEEENEKLRGDTRQKLPMDLLVLEDEKHHGAQSAALQKVKGQERVRKTSLDLRREIIDVGGIQNLIELRKKRKQKKRDALAASHEPPPEPEEITGPVDEETFLKAAVEGKMKVIEKFLADGGSADTCDQFRRTALHRASLEGHMEILEKLLDNGATVDFQDRLDCTAMHWACRGGHLEVVKLLQSHGADTNVRDKLLSTPLHVAVRTGQVEIVEHFLSLGLEINARDREGDTALHDAVRLNRYKIIKLLLLHGADMMTKNLAGKTPTDLVQLWQADTRHALEHPEPGAEHNGLEGPNDSGRETPQPVPAQLEHHHHHH” is “not soluble”; for “MDGYQLTFSNNKRSDKSIVSEKLQRDCDPPITQKYFWSSGGHTFHFRAAAAEKNVTPFSTKMQGKYIKKKAM” it is “not soluble”; for “MDHPVQLSIENPAVSMDSTGQILWAVQSEIQAVYLRSLFEQKEANDGERLTLSVKNLGSSEISPQTLAHSSNGHFFMACGDGKYIVYTYKQYDAIALKIRHYGQGLEFVWAAHPNMFAVRESATNVKIKKNFKDHKSIRSDMMLEGISGGPLLALRSNDSLCFFDWESAALVRRIEITSKSVYWSDNREMVAICGDDSFYVFKYSAEAVANATEVTEDGIEDAFKVIGEQAEAVETGFWIGDCFIFTTALTINRINHYAGGEIVTVAHVDRPLCLLGYMAEDSRVYAVDKDLNVISYELFQSDLEYQTATMRRDIGTRGGPQICRICRLPSSANLPNLPSTANFKKVDLPNLPSSANFEICRTQYNFD” it is “not soluble”.
Then “MDIISKSGEGNKYTINSAIAFVAYASHIDINTTEFSKVLSGLRDFINDEAIRLGGKISDGSFNKCNGDWYEWLIGIRAIEFFLESETNFIVVKMPNATSFDVMSIYKSCLSEFIYDLRSKLSLNNVNLITSNPDFSIIDIRGRREELKSMLKDISFSNISLSTISEIDNLYKNFIDYAELEHIKSFLSVKTTFRPDRRLQLAHEGSLMKALYTHLQTRTWTINPTGIRYYAAATSIGNADVIGLKTVATHSITDVKSLPQSAVDEIFKINSVLDVDSCLSHILSS”, with “soluble”.
For the sequence “MDIPIPTRQLFINGDWKAPVLNKRIPVINPATQNIIGDIPAATKEDVDVAVAAAKTALTRNKGADWATASGAVRARYLRAIAAKVTEKKPELAKLESIDCGKPLDEAAWDIDDVAGCFEYYADLAEKLDARQKAPVSLPMDTFKSHVLREPIGVVGLITPWNYPMLMATWKVAPALAAGCAAILKPSELASLTCLELGEICKEVGLPPGVLNILTGLGPEAGAPLATHPDVDKVAFTGSSATGSKIMTAAAQLVKPVSLELGGKSPLVVFEDVDLDKAAEWAIFGCFWTNGQICSATSRLILHESIATEFLNRIVKWIKNIKISDPLEEGCRLGPVVSEGQYEKILKFVSNAKSEGATILTGGSRPEHLKKGFFIEPTIITDVTTNMQIWREEVFGPVLCVKTFSTEEEAIDLANDTVYGLGAAVISNDLERCERVTKAFKAGIVWVNCSQPCFTQAPWGGVKRSGFGRELGEWGLDNYLSVKQVTQYISEEPWGWYQPPAKL”, the “soluble on expression in E. coli” value was “soluble”.
Then “MDIPRIFTISESEHRIHNPFTEEKYATLGRVLRMKPGTRILDLGSGSGEMLCTWARDHGITGTGIDMSSLFTAQAKRRAEELGVSERVHFIHNDAAGYVANEKCDVAACVGATWIAGGFAGAEELLAQSLKPGGIMLIGEPYWRQLPATEEIAQACGVSSTSDFLTLPGLVGAFDDLGYDVVEMVLADQEGWDRYEAAKWLTMRRWLEANPDDDFAAEVRAELNIAPKRYVTYARECFGWGVFALIARLEHHHHHH”, with “soluble”.
